Results from IntAct's records for PubMed 29039417.

B1: Protein PTHB1 (Homo sapiens), Q3SYG4 (parent)
chain: MSLFKARDWWSTILGDKEEFDQGCLCLANVDNSGNGQDKIIVGSFMGYLRIFSPHPAKTGDGAQAEDLLLEVDLRDPVLQVEVGKFVSGTEMLHLAVLHSRKLCVYSVSGTLGNVEHGNQCQMKLMYEHNLQRTACNMTYGSFGGVKGRDLICIQSMDGMLMVFEQESYAFGRFLPGFLLPGPLAYSSRTDSFLTVSSCQQVESYKYQVLAFATDADKRQETEQQKLGSGKRLVVDWTLNIGEQALDICIVSFNQSASSVFVLGERNFFCLKDNGQIRFMKKLDWSPSCFLPYCSVSEGTINTLIGNHNNMLHIYQDVTLKWATQLPHIPVAVRVGCLHDLKGVIVTLSDDGHLQCSYLGTDPSLFQAPNVQSRELNYDELDVEMKELQKIIKDVNKSQGVWPMTEREDDLNVSVVVSPNFDSVSQATDVEVGTDLVPSVTVKVTLQNRVILQKAKLSVYVQPPLELTCDQFTFEFMTPDLTRTVSFSVYLKRSYTPSELEGNAVVSYSRPTDRNPDGIPRVIQCKFRLPLKLICLPGQPSKTASHKITIDTNKSPVSLLSLFPGFASQSDDDQVNVMGFHFLGGARITVLASKTSQRYRIQSEQFEDLWLITNELILRLQEYFEKQGVKDFACSFSGSIPLQEYFELIDHHFELRINGEKLEELLSERAVQFRAIQRRLLARFKDKTPAPLQHLDTLLDGTYKQVIALADAVEENQGNLFQSFTRLKSATHLVILLIALWQKLSADQVAILEAAFLPLQEDTQELGWEETVDAAISHLLKTCLSKSSKEQALNLNSQLNIPKDTSQLKKHITLLCDRLSKGGRLCLSTDAAAPQTMVMPGGCTTIPESDLEERSVEQDSTELFTNHRHLTAETPRPEVSPLQGVSE
partner: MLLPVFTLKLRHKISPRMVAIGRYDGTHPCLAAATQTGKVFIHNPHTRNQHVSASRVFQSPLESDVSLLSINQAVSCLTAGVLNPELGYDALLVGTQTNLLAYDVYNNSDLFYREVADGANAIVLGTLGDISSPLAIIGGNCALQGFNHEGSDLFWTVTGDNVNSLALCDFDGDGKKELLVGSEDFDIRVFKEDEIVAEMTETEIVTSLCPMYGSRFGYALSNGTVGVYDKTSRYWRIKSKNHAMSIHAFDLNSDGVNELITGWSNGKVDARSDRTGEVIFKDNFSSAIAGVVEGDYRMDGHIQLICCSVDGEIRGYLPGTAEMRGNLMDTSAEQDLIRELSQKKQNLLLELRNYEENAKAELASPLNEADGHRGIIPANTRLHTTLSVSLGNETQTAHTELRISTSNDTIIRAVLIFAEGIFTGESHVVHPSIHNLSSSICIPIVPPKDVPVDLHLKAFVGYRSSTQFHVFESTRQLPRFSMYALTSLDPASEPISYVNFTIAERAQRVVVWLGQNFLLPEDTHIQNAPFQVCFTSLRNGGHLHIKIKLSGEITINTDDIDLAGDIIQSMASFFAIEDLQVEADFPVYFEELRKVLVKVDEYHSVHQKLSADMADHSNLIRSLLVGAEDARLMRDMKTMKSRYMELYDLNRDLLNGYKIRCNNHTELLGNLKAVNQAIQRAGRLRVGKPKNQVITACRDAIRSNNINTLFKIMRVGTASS

Variants of: B1
Conditions: with bbs2_human BBS2, Q9BXC9

Effect of a mutation on the interaction, with no effect:
V416A
V416K
V416E
P438A
P438E
P438K
D409A
D409E
D409K
K456E
K456A
N420A
N420E
N420K
L452E
L452K
L452A
L411E
L411A
L411K
R449K
R449A
R449E
V413A
V413K
V413E
S425A
S425E
S425K
V450E
V450K
V450A
S458K
S458A
S458E
Q453A
Q453E
Q453K
D410E
D410K
D410A
D422E
D422A
D422K
V417E
V417K
V417A
V432A
V432K
V432E
D429E
D429K
D429A
S414E
S414K
S414A
V444E
V444K
V444A
A455K
A455E
V437E
V437A
V437K
L457K
L457E
L457A
V442A
V442K
V442E
T434K
T434A
T434E
P419A
P419E
P419K
K454A
K454E
Q447K
Q447E
Q447A
S423A
S423K
S423E
V430A
V430K
V430E
L436A
L436K
L436E
E406A
E406K
T441E
